The target of one experiment is Human IL-17A (human, UniProt Q16552 24-155). As to the kind of experiment: cell-based or functional assay.
For the next experiment, the target named is T1, Mouse IL-17A (mouse, UniProt Q62386 26-158, limits assumed).
T1 construct: Bought recombinant protein; also called mice IL-17A
T1 sequence (looked up): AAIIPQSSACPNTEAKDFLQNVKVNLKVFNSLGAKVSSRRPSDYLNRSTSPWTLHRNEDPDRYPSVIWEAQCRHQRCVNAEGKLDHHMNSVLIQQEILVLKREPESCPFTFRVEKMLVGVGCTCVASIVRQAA
Description: ELISA, coated mouse IL-17A, HRP anti-mouse IgG.

Sequence of Human IL-17A (Q16552 24-155 limits assumed): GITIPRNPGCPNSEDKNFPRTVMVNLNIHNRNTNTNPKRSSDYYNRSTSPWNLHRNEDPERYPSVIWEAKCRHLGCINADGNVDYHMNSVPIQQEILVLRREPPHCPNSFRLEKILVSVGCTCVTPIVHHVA
Description for Mouse IL-17A: The plated is blocked with PBST comprising 1% BSA, 300 μL/well, and incubated at 25° C. for at least 1 hour. The plate is washed with PBST for 5 times. Samples to be tested is added at a specific concentration, which are diluted in PBST comprising 1% BSA, 100 μL/well, and incubated at 25° C. for 1 hour. The plate is washed with PBST for 5 times. Then a horse radish peroxidase labeled anti-mouse IgG antibody (1:10,000, in PEST comprising 1% BSA) (Abeam, product No. Ab7068) is added, 100 U L/well, and incubated at 25° C. for 1 hour. The plate is washed with PBST for 5 times. […] 1M H₂SO₄is added with 100 μL/well to terminate the colorimetric development. The Absorbance at 450 nm is read on ELISA.

B1: Control antibody A (antibody, mouse IgG2a, kappa, V domains shown)
VH: QVQLKESGPGLVQPSQTLSLTCTVSGFSLTNYYVHWVRQPPGKGLEWMGGVWNDGDTSYNSVLRSRLSITRDTSKSQVLLKMSSLQTEDTATYYCAREGREGFVGYYVMDAWGPGASVTVSS
VL: DIQMTQSPSFLSASVGERVTLSCKASQNINKYLDWFQQKLGEAPKLLIYNADNLHTGIPSRFSGSGSFSDFILTISSLQPEDDATYFCLQRESWPYTFGAGTKLELKR
notes: Corresponds to the anti-IL-17A antibody moiety of bifunctional fusion proteins A and C; also called anti-IL-17A antibody (rat 1D10 variable region, mouse IgG2a constant region); anti-IL-17A mAb
B1: in the experiment with Human IL-17A, the “IC50 for inhibiting GROα secretion from HT-29 cells induced by IL-17A” value came to 0.532 nM. In addition, in the experiment with Mouse IL-17A, the binding result is “binds”.

The record behind these values is patent US20160340422A1 (BEIJING HANMI PHARMACEUTICAL, published 2016).
